According to IntAct's records for PubMed 24302889:

B1: Retinoblastoma-related protein 1 (Arabidopsis thaliana (Mouse-ear cress)), Q9LKZ3 (parent)
chain: MEEVQPPVTPPIEPNGKRSEASLLDICEKVLSLDGSTCDEALKLFTETKRILSASMSNIGSGTREEVERFWFAFILYSVKRLSVRKEADGLSVSGDNEFNLCQILRALKLNIVDFFKELPQFVVKAGSVLGELYGADWENRLQAKEVQANFVHLSLLSKYYKRGFREFFLTYDANAEKNSANSSTYLLDSYRFGWLLFLALRNHAFSRFKDLVTCSNGVVSILAILIIHVPCRFRNFSIQDSSRFVKKGDKGVDLVASLCKIYDASEDELRIVIDKANNLVETILKKKPSPASECQTDKLDNIDPDGLTYFEDLLEETSISTSLITLEKDYYDGKGELDERVFINEEDSLLGSGSLSAGAVNITGVKRKIDALSSPARTFISPLSPHKSPAAKTNGISGATKLAATPVSTAMTTAKWLRTVISPLLPKPSPGLEHFLKSCDRDITNDVTRRAHIILEAIFPNSSLGAQCGGGSLQAVDLMDDIWAEQRRLEACKLYYRVLEAMCKAEAQILHANNLNSLLTNERFHRCMLACSAELVLATHKTITMLFPAVLERTGITAFDLSKVIESFIRHEDSLPRELRRHLNSLEERLLESMVWEKGSSMYNSLIVARPSLALEINQLGLLAEPMPSLDAIAALINFSDGANHASSVQKHETCPGQNGGIRSPKRLCTDYRSILVERNSFTSPVKDRLLALGNVKSKMLPPPLQSAFASPTRPNPGGGGETCAETGINIFFTKINKLAAVRINGMVERLQLSQQIRESVYCFFQHVLAQRTSLLFSRHIDQIILCCFYGVAKISQMSLTFREIIYNYRKQPQCKPLVFRSVYVDALQCRRQGRIGPDHVDIITFYNEIFIPAVKPLLVELGPVRNDRAVEANNKPEGQCPGSPKVSVFPSVPDMSPKKVSAVHNVYVSPLRGSKMDALISHSTKSYYACVGESTHAYQSPSKDLSAINNRLNNSSSNRKRTLNFDAEAGMVSDSMVANSLNLQNQNQNQNGSDASSSGGAAPLKTEPTDS
partner: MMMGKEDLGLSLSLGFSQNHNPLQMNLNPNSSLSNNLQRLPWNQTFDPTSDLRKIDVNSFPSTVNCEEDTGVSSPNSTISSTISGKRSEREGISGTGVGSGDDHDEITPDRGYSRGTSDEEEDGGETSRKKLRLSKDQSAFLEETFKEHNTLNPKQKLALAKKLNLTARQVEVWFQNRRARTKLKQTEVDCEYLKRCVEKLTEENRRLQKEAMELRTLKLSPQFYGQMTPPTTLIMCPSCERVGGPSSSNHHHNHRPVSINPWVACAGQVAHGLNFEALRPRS

Variants of: B1
Details: with hat2_arath HAT2, P46601

| Variant | effect of a mutation on the interaction |
| --- | --- |
| N849F | disrupting interaction strength |
